Results published in paper PMC12102759 (2025).

B1: PRDM14 peptide 196-211 (PR domain zinc finger protein 14), 16-mer library wild type / NSP3 SUD-M (ORF1ab Nsp3c SUD-M, residues 1356-1493) (parent complex)
chain 1: QFTEEDLHFVLYGVTP
chain 2: LPSIISNEKQEILGTVSWNLREMLAHAEETRKLMPVCVETKAIVSTIQRKYKGIKIQEGVVDYGARFYFYTSKTTVASLINTLNDLNETLVTMPLGYVTHGLNLEEAARYMRSLKVPATVSVSSPDAVTAYNGYLTSS
B2: AZIN2 peptide 1-16 (Antizyme inhibitor 2), 16-mer library wild type / NSP3 ADRP (ORF1ab Nsp3b ADRP, residues 1023-1192) (parent complex)
chain 1: MAGYLSESDFVMVEEG
chain 2: not shown

Variants of: B1
Test: bait immobilised on MaxiSorp plates (10 µg), library pre-cleared on GST, 2 h binding at 4 °C, five washes; one round per day, days 1-4; value from days 2 and 3
In the case of chain 1 QFTEEDLHFVLYGVTE, the screen value is reported as 9.32e-05 average fractional NGS count over selection days 2 and 3 (reads of this peptide / all reads for the bait, averaged over …. With chain 1 QFTEEDLHFVLYGVTD the screen value was 0.004 average fractional NGS count over selection days 2 and 3 (reads of this peptide / all reads for the bait, averaged over …. In the case of chain 1 QFTEEDLHFVLYGVTR, the screen value is reported as 6.57e-05 average fractional NGS count over selection days 2 and 3 (reads of this peptide / all reads for the bait, averaged over …. For chain 1 QFTEEDLHFVLYGVTV, the screen value was 0.000126 average fractional NGS count over selection days 2 and 3 (reads of this peptide / all reads for the bait, averaged over …. In the case of chain 1 QFTEEDLHFVLYGVTH, the screen value is reported as 0.000235 average fractional NGS count over selection days 2 and 3 (reads of this peptide / all reads for the bait, averaged over …. With chain 1 QFTEEDLHFVLYGVTF the screen value was 0.000936 average fractional NGS count over selection days 2 and 3 (reads of this peptide / all reads for the bait, averaged over …. For chain 1 QFTQEDLHFVLYGVTP, the screen value was 4.52e-05 average fractional NGS count over selection days 2 and 3 (reads of this peptide / all reads for the bait, averaged over …. chain 1 QFTEEDLAFVLYGVTP was tested, and the screen value was 0.00113 average fractional NGS count over selection days 2 and 3 (reads of this peptide / all reads for the bait, averaged over …. In the case of chain 1 QFTEEDLRFVLYGVTP, the screen value is reported as 0.0209 average fractional NGS count over selection days 2 and 3 (reads of this peptide / all reads for the bait, averaged over …. With chain 1 QFTEEDLVFVLYGVTP the screen value was 0.000167 average fractional NGS count over selection days 2 and 3 (reads of this peptide / all reads for the bait, averaged over …. For chain 1 QFTEEDLIFVLYGVTP, the screen value was 8.91e-05 average fractional NGS count over selection days 2 and 3 (reads of this peptide / all reads for the bait, averaged over …. In the case of chain 1 QFTEEDLNFVLYGVTP, the screen value is reported as 0.00229 average fractional NGS count over selection days 2 and 3 (reads of this peptide / all reads for the bait, averaged over …. chain 1 QFTEEDLYFVLYGVTP was tested, and the screen value was 5.98e-05 average fractional NGS count over selection days 2 and 3 (reads of this peptide / all reads for the bait, averaged over …. With chain 1 QFTEEDLEFVLYGVTP the screen value was 4.27e-05 average fractional NGS count over selection days 2 and 3 (reads of this peptide / all reads for the bait, averaged over …. With chain 1 QFTEEDLKFVLYGVTP the screen value was 0.000229 average fractional NGS count over selection days 2 and 3 (reads of this peptide / all reads for the bait, averaged over …. With chain 1 QFTEEDLMFVLYGVTP the screen value was 0.194 average fractional NGS count over selection days 2 and 3 (reads of this peptide / all reads for the bait, averaged over …. In the case of chain 1 QFTEEDLLFVLYGVTP, the screen value is reported as 0.000127 average fractional NGS count over selection days 2 and 3 (reads of this peptide / all reads for the bait, averaged over …. For chain 1 QFTEEDLTFVLYGVTP, the screen value was 0.000106 average fractional NGS count over selection days 2 and 3 (reads of this peptide / all reads for the bait, averaged over …. With chain 1 QFTEEDLHFVLYGITP the screen value was 7.71e-05 average fractional NGS count over selection days 2 and 3 (reads of this peptide / all reads for the bait, averaged over …. In the case of chain 1 QFTEEDLHFVLYGLTP, the screen value is reported as 4.25e-05 average fractional NGS count over selection days 2 and 3 (reads of this peptide / all reads for the bait, averaged over ….

Variants of: B2
Test: as above
For chain 1 E15S, the screen value was 0.00159 average fractional NGS count over selection days 2 and 3 (reads of this peptide / all reads for the bait, averaged over …. In the case of chain 1 E15H, the screen value is reported as 0.00102 average fractional NGS count over selection days 2 and 3 (reads of this peptide / all reads for the bait, averaged over …. With chain 1 E15P the screen value was 7.42e-05 average fractional NGS count over selection days 2 and 3 (reads of this peptide / all reads for the bait, averaged over …. For chain 1 E15N, the screen value was 0.000739 average fractional NGS count over selection days 2 and 3 (reads of this peptide / all reads for the bait, averaged over …. With chain 1 E15T the screen value was 0.000718 average fractional NGS count over selection days 2 and 3 (reads of this peptide / all reads for the bait, averaged over …. In the case of chain 1 S8Y, the screen value is reported as 0.035 average fractional NGS count over selection days 2 and 3 (reads of this peptide / all reads for the bait, averaged over …. In the case of chain 1 S8M, the screen value is reported as 0.000908 average fractional NGS count over selection days 2 and 3 (reads of this peptide / all reads for the bait, averaged over …. chain 1 S8L was tested, and the screen value was 0.000166 average fractional NGS count over selection days 2 and 3 (reads of this peptide / all reads for the bait, averaged over …. For chain 1 S8H, the screen value was 6.7e-05 average fractional NGS count over selection days 2 and 3 (reads of this peptide / all reads for the bait, averaged over …. With chain 1 S8T the screen value was 0.00377 average fractional NGS count over selection days 2 and 3 (reads of this peptide / all reads for the bait, averaged over …. With chain 1 E14M the screen value was 0.000122 average fractional NGS count over selection days 2 and 3 (reads of this peptide / all reads for the bait, averaged over …. chain 1 E14R was tested, and the screen value was 0.000473 average fractional NGS count over selection days 2 and 3 (reads of this peptide / all reads for the bait, averaged over …. In the case of chain 1 G3A, the screen value is reported as 0.000627 average fractional NGS count over selection days 2 and 3 (reads of this peptide / all reads for the bait, averaged over …. chain 1 G3H was tested, and the screen value was 8.37e-05 average fractional NGS count over selection days 2 and 3 (reads of this peptide / all reads for the bait, averaged over …. chain 1 G3R was tested, and the screen value was 7.43e-05 average fractional NGS count over selection days 2 and 3 (reads of this peptide / all reads for the bait, averaged over …. In the case of chain 1 M12R, the screen value is reported as 0.000896 average fractional NGS count over selection days 2 and 3 (reads of this peptide / all reads for the bait, averaged over …. With chain 1 M12E the screen value was 0.000138 average fractional NGS count over selection days 2 and 3 (reads of this peptide / all reads for the bait, averaged over …. chain 1 M12H was tested, and the screen value was 0.000156 average fractional NGS count over selection days 2 and 3 (reads of this peptide / all reads for the bait, averaged over …. In the case of chain 1 M12L, the screen value is reported as 0.0611 average fractional NGS count over selection days 2 and 3 (reads of this peptide / all reads for the bait, averaged over …. In the case of chain 1 M12Y, the screen value is reported as 0.000582 average fractional NGS count over selection days 2 and 3 (reads of this peptide / all reads for the bait, averaged over …. chain 1 E7K was tested, and the screen value was 0.00106 average fractional NGS count over selection days 2 and 3 (reads of this peptide / all reads for the bait, averaged over …. For chain 1 V13T, the screen value was 8.71e-05 average fractional NGS count over selection days 2 and 3 (reads of this peptide / all reads for the bait, averaged over …. For chain 1 V13I, the screen value was 0.00423 average fractional NGS count over selection days 2 and 3 (reads of this peptide / all reads for the bait, averaged over …. With chain 1 V13Q the screen value was 0.000748 average fractional NGS count over selection days 2 and 3 (reads of this peptide / all reads for the bait, averaged over …. For chain 1 Y4W, the screen value was 0.00197 average fractional NGS count over selection days 2 and 3 (reads of this peptide / all reads for the bait, averaged over …. chain 1 V11I was tested, and the screen value was 0.195 average fractional NGS count over selection days 2 and 3 (reads of this peptide / all reads for the bait, averaged over …. In the case of chain 1 V11M, the screen value is reported as 0.000364 average fractional NGS count over selection days 2 and 3 (reads of this peptide / all reads for the bait, averaged over …. In the case of chain 1 V11L, the screen value is reported as 0.0066 average fractional NGS count over selection days 2 and 3 (reads of this peptide / all reads for the bait, averaged over …. With chain 1 G16K the screen value was 0.000188 average fractional NGS count over selection days 2 and 3 (reads of this peptide / all reads for the bait, averaged over …. With chain 1 G16Q the screen value was 0.000216 average fractional NGS count over selection days 2 and 3 (reads of this peptide / all reads for the bait, averaged over …. In the case of chain 1 G16V, the screen value is reported as 0.000213 average fractional NGS count over selection days 2 and 3 (reads of this peptide / all reads for the bait, averaged over …. For chain 1 G16N, the screen value was 0.00027 average fractional NGS count over selection days 2 and 3 (reads of this peptide / all reads for the bait, averaged over …. chain 1 G16D was tested, and the screen value was 0.00105 average fractional NGS count over selection days 2 and 3 (reads of this peptide / all reads for the bait, averaged over …. chain 1 G16P was tested, and the screen value was 9.14e-05 average fractional NGS count over selection days 2 and 3 (reads of this peptide / all reads for the bait, averaged over …. chain 1 G16L was tested, and the screen value was 0.000127 average fractional NGS count over selection days 2 and 3 (reads of this peptide / all reads for the bait, averaged over …. In the case of chain 1 G16T, the screen value is reported as 0.000528 average fractional NGS count over selection days 2 and 3 (reads of this peptide / all reads for the bait, averaged over …. With chain 1 D9E the screen value was 0.000316 average fractional NGS count over selection days 2 and 3 (reads of this peptide / all reads for the bait, averaged over …. With chain 1 D9K the screen value was 0.00156 average fractional NGS count over selection days 2 and 3 (reads of this peptide / all reads for the bait, averaged over …. chain 1 D9Q was tested, and the screen value was 0.000191 average fractional NGS count over selection days 2 and 3 (reads of this peptide / all reads for the bait, averaged over …. In the case of chain 1 D9G, the screen value is reported as 0.000412 average fractional NGS count over selection days 2 and 3 (reads of this peptide / all reads for the bait, averaged over …. In the case of chain 1 D9N, the screen value is reported as 0.0514 average fractional NGS count over selection days 2 and 3 (reads of this peptide / all reads for the bait, averaged over ….
